Drawing on the supplement of paper PMC10567573, this text covers protein stability index for 37 sequences.

± gives the standard deviation.

This data set is described as follows: protein stability index of a GFP-peptide fusion (GPS, HEK-293T) (PSI 1-6); higher = more stable. The conditions noted are these: c terminus: a fixed tail appended.
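Further: 24-mer peptide tiles fused after GFP, lentivirally expressed, FACS-sorted into six equal bins by GFP/DsRed ratio, decoded by Illumina sequencing, PSI is the read-weighted mean bin number.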

SMPRINHGVLSAEGFLFVFGGQDE [GAN]: the protein stability index runs as follows: (treatment: DMSO) 3.05 ± 0.41; (treatment: MLN4924 1 uM, 8 h) 2.88 ± 0.72. Take QKTSRSSSIPCSGSLDGRELSRQV [PPEF2]: the protein stability index by setting is: (treatment: DMSO) 4.32 ± 0.23; (treatment: MLN4924 1 uM, 8 h) 4.48 ± 0.42.

In the case of ESEGSESSGRSCRNERSIQEKLQV [SMG5], the protein stability index turned out to be 4.82 ± 0.12 (treatment: DMSO) and 4.75 ± 0.27 (treatment: MLN4924 1 uM, 8 h). Turning to PSLEDISCNTWPSMPSYSSCTVTT [TBX5], the protein stability index by setting is: (treatment: DMSO) 3.18 ± 0.21; (treatment: MLN4924 1 uM, 8 h) 3.41 ± 0.24. Taken in the same sequence, the figures for DLYKKVKKNSSPPLSLYGQLLWRE [CRY1] were 2.64 ± 0.39 and 2.67 ± 0.67. Taken in the same sequence, the figures for RDRQQAPGLGQESKAPGSCDPGTD [TLE6] were 5.45 ± 0.12 and 5.46 ± 0.16.

Turning to EGASSQIGRAAGTGFTVNVAWNGP [HDAC6], the protein stability index is 3.13 ± 0.34 (treatment: DMSO) and 3.38 ± 0.29 (treatment: MLN4924 1 uM, 8 h). For SNTLGFGTEQAPYGMQTQNYPKGG [ETS2], the protein stability index is, setting by setting: (treatment: DMSO) 4.29 ± 0.26; (treatment: MLN4924 1 uM, 8 h) 4.2 ± 0.28. Taken in the same sequence, the figures for EGTFRPERLLAVAERYGLSGSDVL [RAD51] were 3.23 ± 0.18 and 3.45 ± 0.11. The matching figures for SHEANKLQDMLDGFIKKFVLCPEC [EIF5]: 2.49 ± 0.74 and 2.65 ± 0.38. Taken in the same sequence, the figures for TKLQAQHVSYRELGACVRTAVAQG [SLC25A39] were 3.05 ± 0.42 and 3.29 ± 0.32.

On to RRGVSDWDLRMKLHDRGAQVIHPQ [DNAAF3], for which the protein stability index reads like this: (treatment: DMSO) 3.58 ± 0.092; (treatment: MLN4924 1 uM, 8 h) 3.55 ± 0.35. With CFITLTTIGFGDYVALQTKGALQK [KCNK9], the protein stability index by setting is: (treatment: DMSO) 2.97 ± 0.63; (treatment: MLN4924 1 uM, 8 h) 2.67 ± 0.59.

On to SALTFLRVDQDKDKDCSLDCAGSP [SMOC2], for which the protein stability index runs as follows: (treatment: DMSO) 4.92 ± 0.42; (treatment: MLN4924 1 uM, 8 h) 5 ± 0.088.

As for EPQTEHQQESESEIDSVPKTQSEL [MIA2], the protein stability index was 5.46 ± 0.13 (treatment: DMSO) and 5.59 ± 0.21 (treatment: MLN4924 1 uM, 8 h). Taken in the same sequence, the figures for LAYGSVITVKNLRMAIGYLHSHRH [POMT2] were 2.53 ± 0.69 and 2.63 ± 0.65. Regarding EIRKKVLKIYNKREEDFPSLREYN [MNAT1], the protein stability index was 2.45 ± 0.43 (treatment: DMSO) and 2.64 ± 0.51 (treatment: MLN4924 1 uM, 8 h).

For the sequence YVQWSLPFIVFGATGLTSGLLSLL [SLC22A15], the protein stability index was 3.27 ± 0.45 (treatment: DMSO) and 2.94 ± 0.68 (treatment: MLN4924 1 uM, 8 h). Take TKPSFESGRRGPPPPPRSRGPPRG [RBMX]: the protein stability index was 4.74 ± 0.33 (treatment: DMSO) and 4.81 ± 0.29 (treatment: MLN4924 1 uM, 8 h). Regarding KKPPEESTCFERPCFKWYTSPWSE [ADAMTSL2], the protein stability index reads like this: (treatment: DMSO) 2.67 ± 0.14; (treatment: MLN4924 1 uM, 8 h) 2.88 ± 0.42. For PGCGYFCTAGNFMECQPESSISHR [EHMT1], the protein stability index is, setting by setting: (treatment: DMSO) 2.64 ± 0.15; (treatment: MLN4924 1 uM, 8 h) 2.61 ± 0.53.

Take KNANRPLLDEIVPVYRRDCHEEVY [ACBD3]: the protein stability index by setting is: (treatment: DMSO) 3.88 ± 0.1; (treatment: MLN4924 1 uM, 8 h) 3.74 ± 0.15. The matching figures for LAIKKQQHIDNITQIEDATEKLKA [TRIM14]: 4.41 ± 0.27 and 4.38 ± 0.21. Turning to NARGMGIRSPRPASVATWAIFVHR [CTBP1-DT], the protein stability index by setting is: (treatment: DMSO) 2.16 ± 0.48; (treatment: MLN4924 1 uM, 8 h) 2.15 ± 0.37.

Regarding MKAKQEALVKEREKQLAKKEQSKE [FAM50A], the protein stability index reads like this: (treatment: DMSO) 5.62 ± 0.24; (treatment: MLN4924 1 uM, 8 h) 5.55 ± 0.13. The matching figures for MKACQEDDVRLLCHLTPSIYTEFP [INTS3]: 2.62 ± 0.28 and 2.55 ± 0.25. Taken in the same sequence, the figures for PVCSALLDPVLQAPGTGPAQTELL [FANCE] were 4.2 ± 0.12 and 4.37 ± 0.12. Regarding SDGSCKTAGEMVFVYENAKEGARN [BTBD10], the protein stability index (treatment: DMSO) was 4.31 ± 0.18 and the protein stability index (treatment: MLN4924 1 uM, 8 h) was determined as 4.48 ± 0.16. For the sequence DAENQKNWLDPAKEIKKQVRSGAW [EPB41L3], where the note is “treatment: DMSO”, the protein stability index was found to be 3.55 ± 0.5. For RAPGAGLGQDRQVPLWGQLLLFLV [EMD], the protein stability index turned out to be 2.49 ± 0.17 (treatment: DMSO) and 2.09 ± 0.37 (treatment: MLN4924 1 uM, 8 h).

On to KEEGTVNGASWHTVAGSLNDFSYL [CPXM2], for which the protein stability index reads like this: (treatment: DMSO) 3.35 ± 0.53; (treatment: MLN4924 1 uM, 8 h) 3.33 ± 0.34.

Regarding KLEISTKEVPVVHTETKTITYESS [EPB41L3], the protein stability index is, setting by setting: (treatment: DMSO) 4.83 ± 0.14; (treatment: MLN4924 1 uM, 8 h) 4.64 ± 1. With AYQEVFKPENISLRNKLRELCVKL [SMG5], the protein stability index by setting is: (treatment: DMSO) 2.24 ± 0.23; (treatment: MLN4924 1 uM, 8 h) 2.17 ± 0.35.

With VLVLTKPLGTQVAVNAHQWLDNPE [SEPHS2], the protein stability index was 2.4 ± 0.18 (treatment: DMSO) and 2.19 ± 0.37 (treatment: MLN4924 1 uM, 8 h).

Take PVLGSSSGAGHGSGSGSGPGCGSV [SPAG8]: the protein stability index is 4.8 ± 0.36 (treatment: DMSO) and 4.92 ± 0.49 (treatment: MLN4924 1 uM, 8 h). For the sequence YDLDKIIELNGGQPPLTYKRFQTL [CRY1], the protein stability index came out at 2.69 ± 0.38 (treatment: DMSO) and 2.77 ± 0.32 (treatment: MLN4924 1 uM, 8 h).

As for DWEIQEDSRLMCSSVQKALFEEED [CCDC3], the protein stability index worked out at 5.34 ± 0.25 (treatment: DMSO) and 5.54 ± 0.36 (treatment: MLN4924 1 uM, 8 h).
